The results in this text go back to paper PMC12557367 (2025).

Numbered stars: 1 amine (or outer) side, 2 acyl side, 3 side chain; on linkers, the order of the positions; unused ones are H or OH. Bridge positions count the residues as written; N and C are the ends. Square brackets hold non-standard residues; d marks the D form. * marks the point of attachment. (R)‑NODAGA = O=C(O)CN1CCN(CC(=O)O)CCN([C@H](CCC(=O)*)C(=O)O)CC1; DOTA = O=C(O)CN1CCN(CC(=O)O)CCN(CC(=O)*)CCN(CC(=O)O)CC1; TATA = O=C(CC[*:1])N1CN(C(=O)CC[*:2])CN(C(=O)CC[*:3])C1; Cys(et) = S-ethylcysteine, CCSC[C@H](N[*:1])C(=O)[*:2]; Ser(et) = O-ethylserine, CCOC[C@H](N[*:1])C(=O)[*:2]; 1Nal = N[C@@H](Cc1cccc2ccccc12)C(=O)O; 2Nal = N[C@@H](Cc1ccc2ccccc2c1)C(=O)O; Hyp = O=C(O)[C@@H]1C[C@@H](O)CN1; hArg = N=C(N)NCCCC[C@H](N)C(=O)O; Met(O) = CS(=O)CC[C@H](N)C(=O)O; SeMet = C[Se]CC[C@H](N)C(=O)O; Nle = CCCC[C@H](N)C(=O)O

First the molecules themselves.
B1: 6 (peptide)
chain: {(R)‑NODAGA}-CP[1Nal][dD]C[Ser(et)][hArg]DWSTP[Hyp]WC-NH2
modifications: linker 1-5-15 via TATA
SMILES: CCOC[C@@H]1NC(=O)[C@@H]2CSCCC(=O)N3CN(CN(C3)C(=O)CCSC[C@H](NC(=O)CC[C@H](C(=O)O)N3CCN(CC(=O)O)CCN(CC(=O)O)CC3)C(=O)N3CCC[C@H]3C(=O)N[C@@H](Cc3cccc4ccccc34)C(=O)N[C@H](CC(=O)O)C(=O)N2)C(=O)CCSC[C@@H](C(N)=O)NC(=O)[C@H](Cc2c[nH]c3ccccc23)NC(=O)[C@@H]2C[C@@H](O)CN2C(=O)[C@@H]2CCCN2C(=O)[C@H]([C@@H](C)O)NC(=O)[C@H](CO)NC(=O)[C@H](Cc2c[nH]c3ccccc23)NC(=O)[C@H](CC(=O)O)NC(=O)[C@H](CCCCNC(=N)N)NC1=O
B2: 7 (peptide)
chain: {(R)‑NODAGA}-CP[1Nal][dD]C[Cys(et)][hArg]DWSTP[Hyp]WC-NH2
modifications: linker 1-5-15 via TATA
SMILES: CCSC[C@@H]1NC(=O)[C@@H]2CSCCC(=O)N3CN(CN(C3)C(=O)CCSC[C@H](NC(=O)CC[C@H](C(=O)O)N3CCN(CC(=O)O)CCN(CC(=O)O)CC3)C(=O)N3CCC[C@H]3C(=O)N[C@@H](Cc3cccc4ccccc34)C(=O)N[C@H](CC(=O)O)C(=O)N2)C(=O)CCSC[C@@H](C(N)=O)NC(=O)[C@H](Cc2c[nH]c3ccccc23)NC(=O)[C@@H]2C[C@@H](O)CN2C(=O)[C@@H]2CCCN2C(=O)[C@H]([C@@H](C)O)NC(=O)[C@H](CO)NC(=O)[C@H](Cc2c[nH]c3ccccc23)NC(=O)[C@H](CC(=O)O)NC(=O)[C@H](CCCCNC(=N)N)NC1=O

One may read the IC50 as the concentration at which inhibition is half-maximal. The koff is the first-order rate constant of dissociation. The term Kd denotes the constant that tells how readily two partners part at equilibrium.

The target in one experiment is T1, recombinant human nectin-4 (human, UniProt Q96NY8 32-349).
T1 chain: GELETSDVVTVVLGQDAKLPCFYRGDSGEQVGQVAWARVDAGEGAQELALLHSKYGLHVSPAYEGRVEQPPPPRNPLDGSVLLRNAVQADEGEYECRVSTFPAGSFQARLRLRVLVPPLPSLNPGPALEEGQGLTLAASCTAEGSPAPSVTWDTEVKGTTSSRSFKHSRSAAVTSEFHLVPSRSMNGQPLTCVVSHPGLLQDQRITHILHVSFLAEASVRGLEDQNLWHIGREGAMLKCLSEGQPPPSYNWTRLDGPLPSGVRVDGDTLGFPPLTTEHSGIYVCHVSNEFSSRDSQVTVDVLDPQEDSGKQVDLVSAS
Briefly: FP.
As to {(R)‑NODAGA}-CP[1Nal][dD]CM[hArg]DWSTP[Hyp]WC-NH2 (linker 1-5-15 via TATA) [1e], the concentration for half-maximal inhibition (IC50) stood at 35.6 nM.

Take {DOTA}-CP[2Nal][dD]CMRDWSTP[Hyp]WC-OH (linker 1-5-15 via TATA) [8d (N188)]: the IC50 amounted to 4220 nM.

{(R)‑NODAGA}-CP[1Nal][dD]C[SeMet][hArg]DWSTP[Hyp]WC-NH2 (linker 1-5-15 via TATA) [5]: the IC50 is 48.7 nM.

{(R)‑NODAGA}-CP[1Nal][dD]C[Met(O)][hArg]DWSTP[Hyp]WC-NH2 (linker 1-5-15 via TATA) [2]: the IC50 came out at 568 nM.

For {(R)‑NODAGA}-CP[1Nal][dD]C[Nle][hArg]DWSTP[Hyp]WC-NH2 (linker 1-5-15 via TATA; also: NODAGA complexed with natCu) [natCu-3a], the 50% inhibitory concentration (IC50) was determined as 45.4 nM.

On to {(R)‑NODAGA}-CP[1Nal][dD]C[Nle][hArg]DWSTP[Hyp]WC-NH2 (linker 1-5-15 via TATA) [3a], for which the IC50 was 41.6 nM.

Regarding {(R)‑NODAGA}-CP[2Nal][dD]CM[hArg]DWSTP[Hyp]WC-NH2 (linker 1-5-15 via TATA) [9], the half-inhibitory concentration (IC50) was 270 nM.

In the case of {(R)‑NODAGA}-CP[1Nal][dD]CM[hArg]DWSTP[Hyp]WC-NH2 (linker 1-5-15 via TATA; also: NODAGA complexed with natGa) [natGa-1e], the half-maximal inhibitory concentration (IC50) amounted to 203 nM.

In the case of Ac-CP[1Nal][dD]C[Nle][hArg]DWSTP[Hyp]WC-NH2 (linker 1-5-15 via TATA) [3b], the IC50 was 31.5 nM.

For {(R)‑NODAGA}-CP[1Nal][dD]CM[hArg]DWSTP[Hyp]WC-NH2 (linker 1-5-15 via TATA; also: NODAGA complexed with natCu) [natCu-1e], the IC50 came to 23.7 nM.

As to {DOTA}-CP[2Nal][dD]CMRDWSTP[Hyp]WC-NH2 (linker 1-5-15 via TATA) [8c], the IC50 is 3290 nM.

In the case of {(R)‑NODAGA}-CP[1Nal][dD]CMRDWSTP[Hyp]WC-NH2 (linker 1-5-15 via TATA) [10], the 50% inhibitory concentration (IC50) stood at 32.1 nM.

Turning to Ac-CP[1Nal][dD]CM[hArg]DWSTP[Hyp]WC-NH2 (linker 1-5-15 via TATA) [1d (BCY8126)], the IC50 was found to be 34.7 nM.

Turning to {(R)‑NODAGA}-CP[2Nal][dD]CMRDWSTP[Hyp]WC-NH2 (linker 1-5-15 via TATA) [8a], the IC50 amounted to 479 nM.

Consider H-CP[1Nal][dD]CM[hArg]DWSTP[Hyp]WC-NH2 (linker 1-5-15 via TATA) [1c], for which the IC50 amounted to 51.8 nM.

Regarding B1, the 50% inhibitory concentration (IC50) was found to be 379 nM.

With {DOTA}-CP[1Nal][dD]CM[hArg]DWSTP[Hyp]WC-NH2 (linker 1-5-15 via TATA) [1f], the IC50 is 177 nM.

As for B2, the concentration for half-maximal inhibition (IC50) is 151 nM.

The target in the next experiment is T1, recombinant human nectin-4. Briefly: SPR.
Take {(R)‑NODAGA}-CP[2Nal][dD]CM[hArg]DWSTP[Hyp]WC-NH2 (linker 1-5-15 via TATA) [9]: the koff is 0.0361 s⁻¹.

{(R)‑NODAGA}-CP[1Nal][dD]CMRDWSTP[Hyp]WC-NH2 (linker 1-5-15 via TATA) [10]: the koff was 0.00308 s⁻¹.

Another experiment deals with T1, recombinant human nectin-4. Nature of the experiment: SPR. This is another data set of the same source. On the technique in general: SPR reads the build-up and loss of mass on a sensor chip optically.
Take {(R)‑NODAGA}-CP[2Nal][dD]CM[hArg]DWSTP[Hyp]WC-NH2 (linker 1-5-15 via TATA) [9]: the Kd was 2.85 nM.
